Assay results published in patent publication US20260240884A1, “MIXTURE OF HUMAN MILK OLIGOSACCHARIDES” (N.V. Nutricia, priority 2023, published 2026).

Test system: IL-8 secretion of HT-29 cells
Assay: IL-8 secretion and viability of HT-29 cells pre-incubated with test compounds and challenged with Lyovec-complexed Poly I:C
Type: cell-based, Human

B1: Lactoferrin: lactoferrin, control test compound (protein, UniProt P02788 20-710, looked up)
Lactotransferrin: GRRRSVQWCAVSQPEATKCFQWQRNMRKVRGPPVSCIKRDSPIQCIQAIAENRADAVTLDGGFIYEAGLAPYKLRPVAAEVYGTERQPRTHYYAVAVVKKGGSFQLNELQGLKSCHTGLRRTAGWNVPIGTLRPFLNWTGPPEPIEAAVARFFSASCVPGADKGQFPNLCRLCAGTGENKCAFSSQEPYFSYSGAFKCLRDGAGDVAFIRESTVFEDLSDEAERDEYELLCPDNTRKPVDKFKDCHLARVPSHAVVARSVNGKEDAIWNLLRQAQEKFGKDKSPKFQLFGSPSGQKDLLFKDSAIGFSRVPPRIDSGLYLGSGYFTAIQNLRKSEEEVAARRARVVWCAVGEQELRKCNQWSGLSEGSVTCSSASTTEDCIALVLKGEADAMSLDGGYVYTAGKCGLVPVLAENYKSQQSSDPDPNCVDRPVEGYLAVAVVRRSDTSLTWNSVKGKKSCHTAVDRTAGWNIPMGLLFNQTGSCKFDEYFSQSCAPGSDPRSNLCALCIGDEQGENKCVPNSNERYYGYTGAFRCLAENAGDVAFVKDVTVLQNTDGNNNEAWAKDLKLADFALLCLDGKRKPVTEARSCHLAMAPNHAVVSRMDKVERLKQVLLHQQAKFGRNGSDCPDKFCLFQSETKNLLFNDNTECLARLHGKTTYEKYLGPQYVAGITNLKKCSTSPLLEACEFLRK
Mean IL-8 secretion (0.1% + Poly I:C, Poly I:C alone 21799.28): 9201.69 pg/mL
Mean IL-8 secretion (0.1%, no Poly I:C, Medium 359.54): 343.19 pg/mL
